According to the DeepSol protein solubility set:

assay: soluble on expression in E. coli; label from the status in PepcDB or PDB records

Row | Sequence | soluble on expression in E. coli
1 | MYTFKKGDADYQVMLNENFKEITDSFEDGLFVRKNSKILDLNDAILPGIYSIPATGVDNKPLPNSGSLFVCKDPGGVRQLFQTERTIFIRQLGGVPSSWTDWKKVAFEKEQPFEAWYSPGTNHAGFKNKARYNLGPEFSNIGQRLGLPMKSEPLEWNSGRWQAKVLRDCKLNISGTVKYHVGSSRGVLYAYTHIDKGLDEGVGDLGIGSAVGAVGGLDYKNVAAFDLNVTLKKGEYLAFRLELAADKQLDYTQLSSMHITELV | not soluble
2 | MYTKILGTGSYLPVQVRSNADLEKMVDTSDEWIVTRTGIRERRIAGLDETVATMGFQAAEKALEMAGIDKDDIGLIIVATTSSSHAFPSSACQVQRMLGIKDAASFDLAAACAGFTYALSVADQYVKSGAVKHAIVIGSDVLSRALDPEDRGTIILFGDGAGAVVLGASEQPGIMSTHLHADGRYGELLALPYPDRQQDQPAYVTMAGNEVFKVAVTELAHIVDETLQANNLDRTALDWLVPHQANLRIISATAKKLGMGMDKVVITLDRHGNTSAASVPSAFDEAVRDGRIQRGQLVLLEAFGGGFTWGSALVRF | not soluble
3 | MYTNRWEGLDEFVAVAECGQFTAAALRLGVSSSHVSRQIVRLEERLQTRLLYRSTRKVALTEAGQTFLHHCQRLQDGREEALRAVGDLASEPKGLLRMTCAVAYGERFITPLVTRFMELYPQLRVDIELSNDTLDLVHEGMDLAIRLGRLQDSRMVATRLAPRQMYLCASPSYLERYGRPHSLSELSRHNCLIGGSDTWQLQQNGREFSQRVQGNWRCNSGQAVLDAALQGVGLCQLPDYYVQKHLKEGALVSLLEAHQPPNTAVWALYPQQRHLSPKVRKLVDYLKEGLAMQDEYRQ | not soluble
4 | NAFVSIQTSTIPKTAFVARDFVPLQNRGNQWVAPVRASEDDPALAKSYLDFAIIEVPLFLHNQMDKQIYDHFMRPAINTYERLGNSVGIFAYQPMASFKRDSYFALGYPQVESNIAALNLNQTEVKPTRPEDVAQVTFKEPWSVDHHREIPTLTTNQLTTIKTKHFSGSKLSWPFDHTKSF | not soluble
5 | NDSLVLFSTDLKLLWANRSAEHLYGDYVEQLVGQEFTSLKGARGIPSDAIAVRASLGSGEPCYERVSAADGRIWDMKYFPVRGED | not soluble
6 | NFLDFEKPIVELETKIQALRDVSRHSTSASVDLDKELEQLEKKSLELKKKIFSDLGAWQVAQLARHPQRPYTLDYLKHIFTEFDELAGDRAYADDKAIVGGIARLEGRSVMVIGHQKGRETREKVKRNFGMPKPEGYRKALRLMEMAERFNM | not soluble
7 | NIDEHSLFVNVGERTNVTGSKAFARLILNGGYAEGLVIARSQVENGAQIIDINMDEAMLDSQKAMVTFLNLLAAEPDISRLPIMLDSSKWSVIEAGLKCVQGKAVINSISLKEGEAEFLHHARLARRYGAAVIVMAFDETGQADTLQRKVEICTRCYHTLIEQADFPPEDIIFDPNIFAIATGIEEHSNYAVDFIEATHVIRQTLPYAKVSGGVSNVSFSFRGNEPIREAIHTAFLYHAVKAGMTMGIVNAGQLGVYSDIPPDLLEHVEDVLLNRRPDATERLVEFAEHFKGQKKEQIE | not soluble
8 | NKDWRINGYVNFSRNENKITELPANMVQENYSPKNGAYAARAEVGRPIGSFYGYRYKGVYQNTDATYARDAEGNVMNDAKGRPIVMKNLTATCQPGDAMYEDINHDGVINQYDIVYLGNANPTLTGGAGLTVKYKQFSINTFFHGRFGQSVVNTARMNNESMHGNANQSTAVLRRWKNEGDITDIPRALYGEGFNYLGSDRFVEDTSFLRLKQLTLNYAFPKSICNKLGITSLTCFVTGYNLFTWSSYTGQDPEVNLPSRPTDLATDGATTPVSRRYTFGFNLSF | not soluble
9 | NKSYRSTEQITNFAKALLPDGDQIQAFTRKGDLPKVMIRYGEDAALSSLRSEVEHQLKATNTVAVLTKDLAESKQVYQYLKRYTVTTLMADSDRTMPQGVIVMPIYLAKGLEFDAVVAYDVSATNYPDADSVGILYTIASRAMHHLTLLSIGDVSPLIAQLDPTLFTIEHQVRV | not soluble
10 | NNAKEALELCDKRDWDLAELSYRYELQFHTKEEICAYCLEIWEVMQEVYYNGTHPNEDYLPGKLHLKRRAKGLKERVAMTADPMGIIDFISLYAIAIAEENASGAKVVTAPTNGACAVIPAVMLYLKNHTIGFSDEKVIEFLLTAMLIGSFYKKNASISGAEAGCQAEIGSASSMAAAAMATVLGANAFKACNAAEMAMEHHLGLTCDPVAGLVQIPCIERNAFGAIKAISAARMAMTRKSTPMVSLDEVIETMYETGKDMNYKYKETSLGGLATN | not soluble
11 | NPQTSVSNTGKEADATKNQTSKADQVSAPYEGTGKTSKSLYGGQTELEKNIQTLQPSSIIGTDERTRISSTTSFPYRATVQLSIKYPNTSSTYGCTGFLVNPNTVVTAGHCVYSQDHGWASTITAAPGRNGSSYPYGTYSGTMFYSVKGWTESKDTNYDYGAIKLNGSPGNTVGWYGYRTTNSSSPVGLSSSVTGFPCDKTFGTMWSDTKPIRSAETYKLTYTTDTYGCQSGSPVYRNYSDTGQTAIAIHTNGGSSYNLGTRVTNDVFNNIQYWANQ | not soluble
12 | NPYDVVVIGGGPGGYVASIKAAQLGMKTACVEKRGALGGTCLNVGCIPSKALLHATHLYHDAHANFARYGLMGGEGVTMDSAKMQQQKERAVKGLTGGVEYLFKKNKVTYYKGEGSFETAHSIRVNGLDGKQEMLETKKTIIATGSEPTELPFLPFDEKVVLSSTGALALPRVPKTMVVIGGGVIGLELGSVWARLGAEVTVVEFAPRCAPTLDEDVTNALVGALAKNEKMKFMTSTKVVGGTNNGDSVSLEVEGKNGKRETVTCEALLVSVGRRPFTGGLGLDKINVAKNERGFVKIGDHFETSIPDVYAIGDVVDKGPMLAHKAEDEGVACAEILAGKPGHVNYGVIPAVIYTMPEVASVGKSEDELKKEGVAYKVGKFPFNANSRAKAVSTEDGFVKVLVDKATDRILGVHIVCTTAGELIGEACLAMEYGASSEDVGRTCHAHPTMSEALKEACMALFAKTINF | soluble
13 | NSKKETVTVGVLQFVSHPALDEIYKGVEEGLKENGYDKGKNLEIIFQNGQADQSKLAIMSQQLVQKKADVLIGIATPAAQALANTTQEIPIILGAITDPVSAGLVKDNQKPGGNITGVSDQSPLSAQMDLLKELIPAAKKIGILYASSEENSRYQVAEAQKAAEAKGLTVKTYAVPSSNEIAQTVQVMTKETDVIYIPTDNTIANAMQTVVGEANRTKTPIIPSVDTMVEQGGLATVGINQHALGVQAGKMAAEVLSGKSQPATTPIYTFNTGDTIINEKQAQKLGITIPAELAKKSKLIN | not soluble
14 | NSRVSDLDLELLFQDRAARLGKSISRLIVVASLIDKPTNLGGLCRTCEVFGASVLVVGSLQCISDKQFQHLSVSAEQWLPLVEVKPPQLIDYLQQKKTEGYTIIGVEQTAKSLDLTQYCFPEKSLLLLGNEREGIPANLIQQLDVCVEIPQQGIIRSLNVHVSGALLIWEYTRQQLLSHGDTKP | soluble
15 | NTDIRNIPVGVVDQSGSTAGRIITQSVKVTQVVDIKETYATAQEAEQAIQDGIVRAVLILPSDLTQRMMQGRELGQWIVDGSDTMISSAILSLQTMPLTDFDFEIRPAPSKTFEVALYYNPSRRSAVN | not soluble
16 | NTGIVSSFFTYTGPAHGTQWDEIDIEFLGKDTTKVQFNYYTNGVGGHEKVISLGFDASKGFHTYAFDWQPGYIKWYVDGVLKHTATANIPSTPGKIMMNLWNGTGVDDWLGSYNGANPLYAEYDWVKYTSNQTGGSFFEPFNSYNSGTWEKADGYSNGGVFNCTWRANNVNFTNDGKLKLGLTSSAYNKFDCAEYRSTNIYGYGLYEVSMKPAK | soluble
17 | NTKGIDEIKNLETDFNGRIGVYALDTGSGKSFSYRANERFPLCSSFKGFLAAAVLKGSQDNRLNLNQIVNYNTRSLEFHSPITTKYKDNGMSLGDMAAAALQYSDNGATNIILERYIGGPEGMTKFMRSIGDEDFRLDRWELDLNTAIPGDERDTSTPAAVAKSLKTLALGNILSEHEKETYQTWLKGNTTGAARIRASVPSDWVVGDKTGSCGAYGTANDYAVVWPKNRAPLIISVYTTKNEKEAKHEDKVIAEASRIAIDNLK | soluble
18 | NVLPSELPAGVDWRSRGCVTPVKDQRDCGSCWAFSTTGALEGAHCAKTGKLVSLSEQELMDCSRAEGNQSCSGGEMNDAFQYVLDSGGICSEDAYPYLARDEECRAQSCEKVVKILGFKDVPRRSEAAMKAALAKSPVSIAIEADQMPFQFYHEGVFDASCGTDLDHGVLLVGYGTDKESKKDFWIMKNSWGTGWGRDGYMYMAMHKGEEGQCGLLLDASFPVM | soluble
19 | PAKLGYWKIRGLQQPVRLLLEYLGEKYEEQIYERDDGEKWFSKKFELGLDLPNLPYYIDDKCKLTQSLAILRYIADKHGMIGTTSEERARVSMIEGAAVDLRQGISRISYQPKFEQLKEGYLKDLPTTMKMWSDFLGKNPYLRGTSVSHVDFMVYEALDAIRYLEPHCLDHFPNLQQFMSRIEALPSIKAYMESNRFIKWPLNGWHAQFGGGDAPP | soluble
20 | PEFMVTTEPALADLQEQLYNGNEKSQLAAMSTLSTAGTEGYHLLQEFLKDSATFSPPPAPWIRGQAYRLLFHSPEASVQAFLQQHYPQGVIPLRSDRGVDYQELAKLFVAEKFEAADRLTTQKLCELAGPLAQKRRWLYFTEVEQLPIPDLQTIDQLWLAFSLGRFGYSVQRQLWLGCGQNWDRLWEKIGWRQGKRWPRYPNEFIWDLSAPRGHLPLTNQLRGVQVLNALLNHPAWTA | soluble
21 | PEKPAKTQKTSLDEALQWRDSLDKLLQNNYGLASFKSFLKSEFSEENLEFWIACEDYKKIKSPAKMAEKAKQIYEEFIQTEAPKEVNIDHFTKDITMKNLVEPSLSSFDMAQKRIHALMEKDSLPRFVRSEFYQELI | soluble
22 | PFKESQARGLLQDNMANSYNGGDFEDGLLNLSKEVFPTDKYLYQDGQFLDKKTINAYLNPKYTKREIDKMSEKDKKDKKANENLGLNPSHEGETNPEKIAEKSPAYLSNILEQDFYGGGDTKGKNIKGMTIGLAMNSVYYYKKEKDGPTFSKKLDDSEVKKQGKQMASEILSRLRENDDLKDIPIHFAIYKQSSEDSITPGEFITQATAEKSQTKLNEWHNINEKSALLPSSTAADYDENLNNNFKQFNDNLQSYFSNFTQAVGKVKFVDKKPQRLVVDLPIDYYGQAETIGITQYVTEQANKYFDKIDNYEIRIKDGNQPRALISKTKDDKEPQV | not soluble
23 | PFSWMKFVVISRTDLEENGREILIHECAHIRKHHSWDLLIADICIFFQWFNPGAWLLKQELQNIHEYEADEAVINEGINARDYQLLLI | not soluble
24 | PGGPEEQWQRAIHERGEAVCPTCNVVTRKTLVGLKKHMEVCQKLQDALKCQHCRKQFKSKAGLNYHTMAEHSAKPSDAEASEGGE | soluble
25 | PHDDSYWDRVLTHGKNCIKYTPNNAASLHNAIRLLNESPWMKVTMGLEALNVAQLYSAERCYMPIAQYLCSEHAPTSHHGAKARNNVKGYDHV | not soluble
26 | PIFTLNTNIKATDVPSDFLSSTSALVGNILSKPGSYVAVHINTDQQLSFGGSTNPAAFGTLMSIGGIEPSRNRDHSAKLFDHLNTKLGIPKNRMYIHFVNLNGDDVGWNGTTF | soluble
